# Results taken from JP2000166574A.
# Target: 抗Fasモノクローナル抗体HFE7A (from mouse-mouse hybridoma HFE7A, FERM BP-5828)
# Experiment: peptide (200 μg) preincubated with HFE7A (0.25 μg), then flow cytometry on WR19L12a cells
row,inhibition of binding of HFE7A to WR19L12a cells,Binder
1,60%,KCRCKPNFFC [P110]
2,50%,EINCTRTQNT [P100]
